Consider 1 substance from US20110244498.

The data set relates to non-phosphorylated pKID-Abl.

Turning to “Abl tyrosine kinase (New England Biolabs)”, the “conversion of non-phosphorylated pKID-Abl to phosphorylated pKID-Abl (analytical HPLC, 30 min at 37 C, 300 units Abl)” value is given as 62% conversion of non-phosphorylated pKID-Abl to phosphorylated pKID-Abl in the absence of Gleevec; the “conversion of non-phosphorylated pKID-Abl to phosphorylated pKID-Abl in the presence of 50 µM Gleevec (analytical HPLC)” value was “less than 5% conversion was observed in the presence of Gleevec”; the “terbium luminescence after incubation with kinase” value is “resulted in a significant increase in terbium luminescence”.
